PMC5307791, “Thermus thermophilus as source of thermozymes for biotechnological applications: homologous expression and biochemical characterization of an α-galactosidase” (Microbial Cell Factories, 2017)

Legend:
[1] = target: α-galactosidase from Thermus thermophilus HB27 (TtGalA), N-terminally His-tagged, expressed in T. thermophilus HB27::nar (Thermus thermophilus HB27); test: SEC-MALS; size-exclusion chromatography (S200 16/60) with Mini DAWN Treos triple-angle light scattering and QELS; 500 µg of protein (1 mg/ml) loaded; 0.5 ml/min; buffer A (50 mM Tris-HCl pH 7.5, 500 mM NaCl)
[2] = substrate: O=[N+]([O-])c1ccc(O[C@H]2O[C@H](CO)[C@H](O)[C@H](O)[C@H]2O)cc1; test: purified protein; details: 90 °C, pH 6.0, 50 mM sodium phosphate

| stoichiometry N [1] | Molecule | Km [2] | Vmax [2] | kcat [2] |
| --- | --- | --- | --- | --- |
| 6 | α-galactosidase from Thermus thermophilus HB27 (TtGalA), N-terminally His-tagged, expressed in T. thermophilus HB27::nar (enzyme) | – | – | – |
| – | TtGalA (Thermus thermophilus HB27) (protein) MRLNLGGAEVFLRAEGLEEAPGGVRLWGREVRVFPPFPAKGFFRHGWQSWSLAAWVDPAQAPTPLLPEARRPQADDPFLLEAGAWWGSGVGALRGPDGRALLLGALDLGARVLGREDLLLGRYAGEGGAWFLAHGPEEEVFAAYAQLLPRRLSGRPPRVWCSWYSFYTRIGEDLLLRVLDEVAAFSFEVFQIDDGWQRALGDWEPNDRFPRGMAFLAERIRERGLRPGLWFAPFLVTADSPLFQMRPDWVLRDGEGRPVRAGFNWGRPLYALDAGNEEVVEWAADLVRKALAWGYDYLKLDFLYAAALPGAEGEARYRRAMARLREAAGEAYLLFCGAPVLASLGLADGLRVGPDVAPYWDNEERSFWLADPTGPGLRNALRSTLHRLWLMENVHVDPDVVYFRTRFNLLSPEEMRLQEALAHFTGFKATSDPPSWLLPEEKGRLEAFLAREVPVRRLGPYRFRVGEEEVDYAPLL | 690 ± 17 µM | 338 µmol/min/mg | 710 s⁻¹ |
